Experimental data as given in the nanobody polyreactivity screen of Harvey et al. (2022).

Experiment: yeast display, Sf9 membrane polyspecificity reagent, FACS + sequencing; frameworks hold sequencing errors
Method in brief: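 A nanobody's polyreactivity label depends on the gate it was sorted from. Yeast display cells were stained with 10% biotinylated, detergent-solubilized Sf9 membrane reagent for 1 hour at 4 °C, enriched on streptavidin microbeads and sorted by FACS. The low and high (top ~1%) gates were set on anti-HA fluorescence for expression and streptavidin fluorescence for reagent binding.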

Sequence	polyreactivity (PSR sort gate)
QVQLVESGGGLVQAGGSLRLSCAASGSIFRRNAMGWYRQAPGKERELVAAINSGGTTYYADSVKGRFTNSRDNAKNTVYLQMNSLKPEVTAVYYCATVYRGWYYYWGQGTQVTVSS	high polyreactivity
QVQLVESGGGLVQAGGSLRLSCAASGSIFRRNAMGWYRQAPGKERELVAAISIRGGSTYYADSVKGRFTISRDNAKNTVYLQMNSLKPEDTAVYYCNAKFRKADYDYWGQGTQVTVSS	high polyreactivity
QVQLVESGGGLVQAGGSLRLSCAASGSIFRRNAMGWYRQAPGKERELVATITSDGSTDYADSVKGRFTISRDNAKNTFYLQMISLKPEDTAVYYCAVAYLWRPYDFREFDYWGQGTQVTLSS	low polyreactivity
QVQLVESGGGLVQAGGSLRLSCAASGSIFRRNAMGWYRQAPGTERELVAAISLRGGSTYYADSVKGRFTISRDLAKNTVYLQMISLKTQDTAVYYCADDEFDDYDWYRGYDTTYDYWGQGTQVTGSS	low polyreactivity
QVQLVESGGGLVQAGGSLRLSCAASGSIFRRYAMGWYRQAPGKEREFVAAITGSGGRTYYADSVKGRFTISRDNAKNTVYLQMNSLKPEDTAVYYCAARRRDRVTYYYWGQGTQVTVSS	high polyreactivity
QVQLVESGGGLVQAGGSLRLSCAASGSIFRRYAMGWYRQAPGKERELVAGISSGGYTNYADSVKGRFTISRDNAKNTVYLQMNRLKPEDTAVYYCAAKQYRYVRYRPVDYWGQGTQVTVSS	high polyreactivity
QVQLVESGGGLVQAGGSLRLSCAASGSIFRRYAMGWYRQAPGKERELVATITSSVCRTYYADSVKARFTISRDTAKNTVYLQMNSLKPEETAVYFCAVYVGLWGAGGKGDYWGQGTQVTVSS	low polyreactivity
QVQLVESGGGLVQAGGSLRLSCAASGSIFRRYAMGWYRQEPGKEMEFVAAITGSGGRTYYADSVKGRITISRDNAKNTVYLQMNSLKPEDTAVYYCAARRRDRVTYYYWGQGTQVTVSS	high polyreactivity
QVQLVESGGGLVQAGGSLRLSCAASGSIFRRYAMGWYRQPPGKERELVASISSRGTRTYYADSVKGRFTISRDNAKNTVYLQMNSLKPEDTAVYYCAASYYTPYDYWGQGTQVTVSS	high polyreactivity
QVQLVESGGGLVQAGGSLRLSCAASGSIFRSYAIGWYRQAPGKERELVASISRRGGSTYYADSVKGRFTISRDNAKNTVYLQMKSLKPEDTAVYYCAAVRYNSRVSTTPSEMYYWGQGTQVTVSS	low polyreactivity
QVQLVESGGGLVQAGGSLRLSCAASGSIFRSYALGGYRQAPGKERELVASISRRGGSTYYADSVKGRFTISRDNAKNTVYLQMNSLKPQDTAVYYCAAVRYNSRGSTTPSEMYYWGQGTQVTVSS	low polyreactivity
QVQLVESGGGLVQAGGSLRLSCAASGSIFRSYAMGWYRQAPGKERELVAAISSGGRTKYADSVKGRFTISRDNAKNTVYLQMNSLKPEDTAVYYCAARVNVKYYGFYYWGQGTQVTVSS	high polyreactivity
QVQLVESGGGLVQAGGSLRLSCAASGSIFRSYAMGWYRQAPGKERELVAAITSSSGSTYYADSVKGRFTISRDNAKNTVYLQMNSLKPEDTAVYYCNAPYWKSRFRAYYHWGQGTQVTVSS	high polyreactivity
QVQLVESGGGLVQAGGSLRLSCAASGSIFRTNTMGWYRQAPGKERELVAAITAIGDSTYYADSVKGRFTISRDNAKNTVYLQMNSLKPEDTAVYYCAAEKVSWGYHFYSSYDYWGQGTQVTVSS	low polyreactivity
QVQLVESGGGLVQAGGSLRLSCAASGSIFRTYAMGWYIQAPGKERELVAAIRRSGGRTYYADSVKGRFTISRDNAKNTVYLQMNSLKPEDTAVYYCNKRVSKQSKYDYWGQGTQVTVSS	high polyreactivity
QVQLVESGGGLVQAGGSLRLSCAASGSIFRTYAMGWYRQAPGKEWELVAAISGSGSRTYYADSVKGRFTISRDNAKNTVYLQMNSLKPEDTAVYYCAAQTFAYKVFFLYDYWGQGTQVTVSS	low polyreactivity
QVQLVESGGGLVQAGGSLRLSCAASGSIFRTYVMGWYRQAPGKERELVAAISSSGGRTYYADSVKGRFTISRDNAKNTVYLLMNSLKPEDTAVYYCAAPRTSTRYRLTLQGVNQYDYWGQGTQVTVSS	high polyreactivity
QVQLVESGGGLVQAGGSLRLSCAASGSIFRVYAMGWYRQAPGKERELVAAITNGGNTNYADSVKGRFTISRDNAKNTVYLQMNSLKPEDTAVYYCAATLHRYWYRLYYYWGQGTQVTVSS	high polyreactivity
QVQLVESGGGLVQAGGSLRLSCAASGSIFRVYAMGWYRQAPGKERELVATISGSAGRTYYADSVKGRFTISRDNAKNTVYLQMNSLKPEDTAVYYCAARWYKEYYWGQGTQVTVSS	high polyreactivity
QVQLVESGGGLVQAGGSLRLSCAASGSIFRWNAMGWYRQAPGKERELVAAISKSGGRRYYADSVKGRFTISRDNAKNTVYLQMNSVKPEDTAVYYCAAGYTTTQYYGPQYDYWGQGTQVTVSS	high polyreactivity
QVQLVESGGGLVQAGGSLRLSCAASGSIFRWNAMGWYRQAPGKERELVAGIRWDSGSTYYADSVKGRFTISRDNAKNTVYLQMNSLKPEDTAVYYCAADLFDFLLIDGFAVVTYGYWGQGTQVNVSS	low polyreactivity
QVQLVESGGGLVQAGGSLRLSCAASGSIFRWYAMGWSRQAPGKERELVAAISKSGGTTYYADSVKGRFTISRDNAKNTVYLQMNSLKPEDTAVYYCAARRYPYGGYGYRYDYWGQGTQVTVSS	high polyreactivity

Sequence	polyreactivity (PSR sort gate)
QVQLVESGGGLVQAGGSLRLSCAASGSIFRWYAMGWSRQAPGKERQLVAAIRGNGASTYYADSVKGRFTISRDNAKNTVYLQMNSLKPEDTAVYYCAAYPSFYHSQYGYWGQGTQVTVSS	high polyreactivity
QVQLVESGGGLVQAGGSLRLSCAASGSIFRWYAMGWYRQAPGKERELVAGISSTGGSTYYADSVKGRFTISRDNAKNTVYLQMNSLKPEDTAVYYCAVVSYPSAFRRYNYWGQGTQVTVSS	high polyreactivity
QVQLVESGGGLVQAGGSLRLSCAASGSIFRYNAMGWYRKAPGKEREFVAIISYSGVRTYYADSVKGRFTISRDNAKNTVYLQMNSLKPEDTAVYYCAADFKQKGHRTRTTYWGQGTKVTVSS	high polyreactivity
QVQLVESGGGLVQAGGSLRLSCAASGSIFRYNAMGWYRKAPGKERELVAAIRSGGSTYYADSVKGRFTISRDNAKNTVYLQMNSLKPEDTAVYYCNARRYVGYDYWGQGTQVTVSS	high polyreactivity
QVQLVESGGGLVQAGGSLRLSCAASGSIFRYNAMGWYRQAPGKEREFVAAITRSGGSTYADSVKGRFTISRDNAKNTVYLQMNSLKPEDTAVYYCAATFKWYSHTKPRFDYWGQGTQVTVSS	low polyreactivity
QVQLVESGGGLVQAGGSLRLSCAASGSIFRYNAMGWYRQAPGKERELVAAIDWSGGTYYADSVKGRFTISRDNAKNTVYLQMNSLKPEDTAVYYCNARGSKYSSYWGYDYWGQGTQVTVSS	low polyreactivity
QVQLVESGGGLVQAGGSLRLSCAASGSIFRYNAMGWYRQAPGKERELVAAISTSGGSTYYADSVKGRFTISRDNAKNTVYLQMNSLKPEDTAVYYCNKLRNSDSRGIVWYGYWGQGTQVTVSS	high polyreactivity
QVQLVESGGGLVQAGGSLRLSCAASGSIFRYNAMGWYRQAPGKERELVAAITSGDSTYYADSVKGRFTISRDNAKNTVYLQMISLKPEDTAVYYCAADDWRPFDGYYPLKSEREYWGQGTEVTVSS	low polyreactivity
QVQLVESGGGLVQAGGSLRLSCAASGSIFRYNAMGWYRQAPGKERELVAAITWSGGSTYYADSVKGRFTISRDNAKNSVYLQMNSLKPEDTAVYYCAASPYPHYRRYTGGFYYWGQGTQVTVSS	high polyreactivity
QVQLVESGGGLVQAGGSLRLSCAASGSIFRYNAMGWYRQAPGKETELVAAISASGGRTHYADSVKGRFTISRDNAKNTVYLQMNSLKPEDTAVYYCAAATYRGTSLYGYWGQGTQVTVSS	high polyreactivity
QVQLVESGGGLVQAGGSLRLSCAASGSIFRYNTMGWYRQAPGKERELVATITRRGGSTYYADSVKGRFTISRDNAKNTVYLQMNSLKPEDTAVYYCNADNFGGPYNYWGQGTQVTVSS	low polyreactivity
QVQLVESGGGLVQAGGSLRLSCAASGSIFRYYAKGWYRHAPGKERELVAVISRSGTRTYYADSVKGRFTISRDNAKNTVYLQMNSLKPEDTAVYYCAAKDERRSFGMGYWGQGTQVTVSS	high polyreactivity
QVQLVESGGGLVQAGGSLRLSCAASGSIFRYYAMGGYIQAPGKERELVAAISGDSGRTYYADSVKGRFTISRDNAKNTVYFQMNSLNPDDTAVYYCNARVAYRYRTGYDYWGQGTQVTVSS	high polyreactivity
QVQLVESGGGLVQAGGSLRLSCAASGSIFRYYAMGWYIQAPGKERELVAAISYSGGTTYYADSVKGRFTISRDNAKNTVYLQMNSLKPEDTAVYYCAVPLIGVDGYAYDYWGQGTQVTVSS	low polyreactivity
QVQLVESGGGLVQAGGSLRLSCAASGSIFRYYAMGWYRQAPGKEREFVASITYRGGRTYYADSVKGRFTISRDNAKNTVYLQMNSLKPEDTAVYYCAARTRAGAWTSKYLDYWGQGTQVTVSS	high polyreactivity
QVQLVESGGGLVQAGGSLRLSCAASGSIFRYYAMGWYRQAPGKERELVAAISSSGGSTYYADSVKGRFTISRDNAKNTVYLQMNSLKPEDTAGYYCAAVYTQSNSATMYYWGQGTQVTVSS	high polyreactivity
QVQLVESGGGLVQAGGSLRLSCAASGSIFRYYAMGWYRQAPGKERELVANISRGGRTYYADSVKGRFTISRDNAKYTVYLQLHSLNPEDTSVYYCAAGYWFSYSRVTRYDYWGQGTQVTVSS	high polyreactivity
QVQLVESGGGLVQAGGSLRLSCAASGSIFRYYAMGWYRQAPGKETEFGADISASGGSTYYADSVKGRFTISRDNAQNTVYLQMNSLKPEDNAVYYWAARYSYRRPGGYQLGSWGQGTQVTVSS	high polyreactivity
QVQLVESGGGLVQAGGSLRLSCAASGSIFRYYAMGWYRQAPGQERELVAAISRRGSSTYYADSVKGRFTISRDNAKNTVYLQLNSLKPEDTAVYYCAARSRHSGLTQPTLDYWGQGTQVTVSS	high polyreactivity
QVQLVESGGGLVQAGGSLRLSCAASGSIFRYYAMGWYRRAPGKERELVAAISRRGSSTYYADSVKGRFTISRDNAKNTVYLQMNSLKPEDTAVYYCAAGDFKQYDYWGQGTQVTVSS	high polyreactivity
QVQLVESGGGLVQAGGSLRLSCAASGSIFSANAMGWYRQAPGKERELVAAISRSGGRTYYADSVKGRFTISRDNAKNTVYLQMNSLKPEDTAVYYCAADKSRYSVGYDYWGQGTQVTVSS	high polyreactivity
